Results: the nanobody polyreactivity screen of Harvey et al. (2022)

Assay: yeast display, Sf9 membrane polyspecificity reagent, FACS + sequencing; frameworks hold sequencing errors
Summary of the method: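 Genes from sorted yeast were amplified by colony PCR, read by MiSeq 2 × 250 sequencing and filtered on CDR length. These cells carried a synthetic nanobody library in Saccharomyces cerevisiae BJ5465 and were sorted by FACS into low and high (top ~1%) gates on anti-HA and streptavidin fluorescence. Polyreactivity is labelled according to the gate of origin.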

| Sequence | polyreactivity (PSR sort gate) |
| --- | --- |
| QVQLVESGAGLVQAGGSLRLSCAASGITFRGYAMGWYRQAPGKERELVAAISSRGGSTYYADSVMGRFTISRDNAKNTVYLQMNSLKPEDTAVYYCNAVSGLYFTYTYDYWGQGTQVTVSS | high polyreactivity |
| QVQLVESGAGLVQAGGSLRLSCAASGRIFYWYAMGWYRQAPGKERELVAAIRRRVGSTYYADSVKGRFTISRDNAKNTVYLQMNSLKPEDTAVYYCAAVITSDGARYDYWGQGTQVTVSS | high polyreactivity |
| QVQLVESGAGLVQAGGSLRLSCAASGRIVYYVMGWYRQAPAKEMELVAAISTRGGSTYYADSVKGRFTISRDNAKNTVYLQINSLKPEDTAVYYCAASSLLTRFNSWGQGTQVTVSS | high polyreactivity |
| QVQLVESGAGLVQAGGSLRLSCAASGRTFGSNAMGWYRQAPGKERELVAAITRGGSTNYADSVKGRFTISRDNAKNTVYLQMNSLKPEDTAVYYCAKRSYYRYRYYYWGQGTQVSVSS | high polyreactivity |
| QVQLVESGAGLVQAGGSLRLSCAASGRTFRPNPMGWYRPAPWKDRELVASITSGGRTNYADSVKGRFTISRDNAKNTVYLQMNSLKPEDTAVYYCAADHYHGYWKYDYWGQGTQVTVSS | low polyreactivity |
| QVQLVESGAGLVQAGGSLRLSCAASGRTFTSNSMGLYIQAPGKERELVASISFRGGRTYYADSVKVRFTISRDNAKNTVYLQMNSLKPEDTAVYYCVSGTKRTGYGYWGQGTLVTVSS | high polyreactivity |
| QVQLVESGAGLVQAGGSLRLSCAASGSIFSPYDMGWYRPAPGKERELVAAISRSGRTHYADSVKGRFTISRDNAKNTVYLQMNSLKPEDTAVYYCAAGVVSGYYYWGHGTQVTVSS | high polyreactivity |
| QVQLVESGAGLVQAGGSLRLSCAASGSIFYDYAMGVYRQAPGKERELVAAISSSGITYYADSVKGRFTISRDNAKNTVYLQMNSLKPVDTAVYYCNARSYLRDYYYWGQGTQVTVSS | high polyreactivity |
| QVQLVESGAGLVQAGGSLRLSCAASGSILKKYGMGLSRQAPGKERELVARISKSGGSTFYADSVKGRFTISRDNAKNTVYLQMNSLKPEDTAVYYCATLKYPYATSQGYDYWGQGTQVTVSS | high polyreactivity |
| QVQLVESGAGLVQAGGSLRLSCAASGSTCPGNAMGWYRQAPGKERELVAVINSGGGTNYADSVKGRFTISRDNAKNTVYFQINSLNPEDTAVYYCAKGYRRSFIGYWYLKYGYWGQGTQVTVSS | high polyreactivity |
| QVQLVESGAGLVQAGGSLRLSCAASGSTFDAYALGWSRPAPGKERELVAGISSGGSYEFADSVKGRFTISRDYAKNTVYVQMNSLKPEDTAVYYCAADSRQSDYYYQPTKFDYWGQGTQVTVSS | low polyreactivity |
| QVQLVESGAGLVQAGGSLRLSCAASGSTFHYYAMGLYRQAPGKERELVATITWRGGFTYYADSVKGRFTISRDNAKNTVYLQMNSLKPEDTAGYYCTDYYVRRYRDPRLYYWGQGTQVTVSS | high polyreactivity |
| QVQLVESGAGLVQAGGSLRLSCAASGSTFRPNVMGWSRQAPGKERELVAAITYSGRSTYYADSVKGRFTISRDNAKNTVYLQMNTLKPEDTAVYYCAARTWLRYCYWGQGTQVTVSS | high polyreactivity |
| QVQLVESGAGLVQAGGSLRLSCAASGSTFYINTMGLYRQAPGKEREFVAAITWSGGSTYYADSVKGRFTISRDNAKNSGYLQMNSLKPEDTAVYYSAADLYVGDMDYRGQGTQVTVSS | low polyreactivity |
| QVQLVESGAGLVQAGGSLRLSCAASGSTVAGNAMGGYRQAPGTERELVAAIDSSTGSTYYADCVKGRFTISRDNAKITVYLLMNSLKPEDTAVYYCADDQVHKREYDYWGQGTQVTVSS | low polyreactivity |
| QVQLVESGAGLVQAGGSLRLSCAASVRIFDSYAMGWSRQAPGKERELVAAITGSGGRTYYAESVKGRFTISRDNAKNTVYLQMNSQKPEYTAVYYCARALGQRRYDYWGQGTHVTVSS | high polyreactivity |
| QVQLVESGAGLVQAGGSLRLSCAAYGSIFIIYAMGWYRQAPGKERELVAAINTSGTSTYYADSVKGRFTISRDNAKNTVYLQMNSLKPEDTAVYYCAAAGRRSYKYYYWGQGTQVTVSS | high polyreactivity |
| QVQLVESGAGLVQAGGSLRLSCADSGSIFYYYAMGWYRQAPGKEREFGAAIRESVGSTYYADSVKGSFTISRDNAKNTVYLQMNSRKPEDTAVYYCAVRRPRRNYNYPYDYWGQGTQVTVSS | low polyreactivity |
| QVQLVESGAGLVQAGGSLRLSCAPSGRIFDKYAMGWYRQAPGTERELVAAIDWSGGSTYYADSVKGRFTISRDNAKNTVYLQMNCLKPEDTAVYYCAAYWYYEDGQSEARLYGYDYWGQGTQVTVSS | low polyreactivity |
| QVQLVESGAGLVQAGGSLRLSCAPSGRIFTPYAMGWYRQAPGKERELVAVIRDGSTYYADSVKGRFTISRDNSKNTVYLQMNSLKPEDTAVYYCRYDIWVWWSGAYDYWGQGTQVTVSS | low polyreactivity |
| QVQLVESGAGLVQAGGSLRLSCAPSGSTFGDNAMGWYRQAPGKERELVAAISSGGGSTYYADSVKGRFTISRDNAKNTVYLQMNSLKPEDTAVYYCAADGTLTLYRYILDYWGQGTQVTVSS | low polyreactivity |
| QVQLVESGAGLVQAGGSLRLSCASSGFILTGYTMGWYRQAPGKERELVAAISWSGARTYYADSVKGRFTISRDNAKNTVYLQMNSLKPEDTAVYYCARDYYRPTQRYDYWGQGTQVTVSS | high polyreactivity |

| Sequence | polyreactivity (PSR sort gate) |
| --- | --- |
| QVQLVESGAGLVQAGGSLRLTCAASGSTFNRYVMGWYRQAPGKERDFVATISQGGGSTYYADSVKGRFTISRDNAKNTVYLHMNSLKPDVTAVYYCAAVSTRQYRYPHEYWGQGTQVTVSS | high polyreactivity |
| QVQLVESGAGLVQAGGSLRVSCAASGRTFAHYAMGWYRQAPGKERELVAAISSGASTNYADSVKGRFTISRDNAKNTVYLQMNSLKPEDTAVYYCAKQAKYHQGTYDYWGQGTQVTVSS | low polyreactivity |
| QVQLVESGAGLVQAGGSLRVSCAASGSTFDSYAMGLYRQAPGKERELVAAITNGGSTYYADSVKGRFTISRDHAKNTVYLQMNRLKPEDTAVYDCATEDYLLDYLYDYWGPGTQVTVSS | low polyreactivity |
| QVQLVESGAGLVQAGGSLSLSCAASGSIWLYAMGWYRQAPGKEREFVAAITRRGSSTYYADSVKGRFTISRDNAKNPVLLQMNSLKPEDTAVYYCAGVSQYGKWRGDYWGQGTQVTVSS | high polyreactivity |
| QVQLVESGAGLVQAGGSRRLSCAASGSIFGVNAMGGYRQAPGKERELVASITGGDSTNYADSVKGRFTISRDNAKNTVYLQMNSLKPEDTAFYYCAKDHYYRYEEGDYWGQGTQVTVSS | low polyreactivity |
| QVQLVESGAGLVQAGRSLRLSCAASGRTLSRFAMGGYRQAPGKERELVAGITSGGDTRTYYADSVKGRFTISRDYAKNTVYLQMNSLKPEDPAVYYCWGQVTQVTVSS | low polyreactivity |
| QVQLVESGARLVQAGGSLRLRCAPSGSIFDGYAMGWYRQAPGKEREFVAAISKGGTRTYYADSVKGRFTISRDNAKNTVYLQMNSLIPEDSAVFYCNAYYRREPDDGDYDYWGQGTQVTVSS | high polyreactivity |
| QVQLVESGEGLVQAGGSLRLSCAASGITFDAYTMGWYRQAPGKERELVAAITWSSTSTYYADSVKGRFTISRDNAKNTVYLQMNSLKPEDTAVFYCAAYRVGDYYWGQGTKVTVSS | low polyreactivity |
| QVQLVESGGALDQAGGSLRLSCAASGSTFYYYAMGWYRQAPGKERELVAAISTSDGSTYYADSVKGRFTISRDNAKNTVYLQMNSLKPEDTAVYYCAADSHDRFPSYYYWGQGTQVTVSS | low polyreactivity |
| QVQLVESGGALGQAGGRLRLTCAASGSTFSIYGMGWYRQAHGKEREFVAALRTSGGRTYADSVKGRFTISRDNAKNTVYLQLNSLKPDDPAVDYCAAHVNYIYDWGQGTQVTVSS | high polyreactivity |
| QVQLVESGGALHQAGGSLRLNCAASGRTFGANAMGWYRQAPGKERELVAAISSSDDSTYYADSVKGRFTISRDNAKKTVYLQMNSLKPEDTAVYYCAAEDVYRQLDYWGQGTQVTVSS | low polyreactivity |
| QVQLVESGGALVKAGGSLRLSCAASGYIFYGYAMGRYRQAPGKEWELVAAITVRGGSTYYADSVKGRFTISRDNAKNTVYLQMNSLKPEDTAVYYCAAAPQFTFGVGYWGQGTQVTVSS | low polyreactivity |
| QVQLVESGGALVQAGGSLGLICAASGSIFRWYAMGWYRQAPGKERELVASINSSGDRTYYADSVKGRFTISRDKAKKTVFLQMNSLNPEDTAVYNCAAQISVKVDFWGQGTQVTVSS | high polyreactivity |
| QVQLVESGGALVQAGGSLRFSCASSGRIFSSNTMGWYRQAPGKERELVAAISRGSITYYAHSVKGRFTISRDNAKNTVYLQMNSLKPEDTAVYYCAAGVGLDNYGYGYWGQGTQVTVSS | low polyreactivity |
| QVQLVESGGALVQAGGSLRLICAASGGTFTNYAMGWYSQAPGKERELVAAITDSGATTYYADSVKGRFTNSRDNAKNTVYLQMNSLKPEDTAVYYCNAELDLYTDFDYWGQGTQVTVSS | low polyreactivity |
| QVQLVESGGALVQAGGSLRLSCAASGCIFAPYAMGWYRQAPGKERELVADITEDTGITYYADSVKGRFTISRDNAKNNVYLHMNSLKPVDTAVYYCNAEFYFYDYWGQGTQVTVSS | low polyreactivity |
| QVQLVESGGALVQAGGSLRLSCAASGFIFFQYAMGWYRQAPGKERELVAAISGSGVTTYYADSVKGRFTISRDNAKNTVYLQMNSLKPEDTAVYYCNAALRWKYDWGQGTQVTVSS | low polyreactivity |
| QVQLVESGGALVQAGGSLRLSCAASGFTFLIYAKGWYIQAPGKERELVAAITWRGSGTYYADCVKGRFTISRDNGQNTVYLQMNSLKPEDSAVYYCAARTARRTYDYWGQGTQVTVSS | low polyreactivity |
| QVQLVESGGALVQAGGSLRLSCAASGGIFSYYAMGWYRQAPGKERELVAAMSWSGTSTYYADSVKGRFTISRDNAKNTVYLQMNSLNQEDTAVYYCNKVTYSRAQYIGGDGYFWGEGTQVTVSS | high polyreactivity |
| QVQLVESGGALVQAGGSLRLSCAASGIIFNLYAKGWYRPAPGKEMELVAAITSSGTSTYYADSVKGRFTISRDNAKNTVYLQMNSLSPEDTAVYYCAAERGFYYFVEYDYWGQGTQVTVSS | high polyreactivity |
| QVQLVESGGALVQAGGSLRLSCAASGIILLRYAMGWYRQAPGKERELVAAISYSGGSTYYADSVKGRFTISRDNAKNTVYLQMNSLKPEDTAVYYCNTVGPRRYSYDYWGQGTQVTVSS | high polyreactivity |
